{"source": "paper PMC7954794", "about": "“Protein context shapes the specificity of SH3 domain-mediated interactions in vivo” (Nature Communications, 2021)", "molecules": {"B1": {"name": "LSB1 (protein, UniProt P53281 2-241, looked up)", "LAS seventeen-binding protein …": "SASLVNRSLKNIRNELEFLKESNVISGDIFELINSKLPEKWDGNQRSPQNADTEEYVEALYDFEAQQDGDLSLKTGDKIQVLEKISPDWYRGKSNNKIGIFPANYVKPAFTRSASPKSAEAASSSTVSRPSVPPPSYEPAASQYPSQQVSAPYAPPAGYMQAPPPQQQQAPLPYPPPFTNYYQQPQQQYAPPSQQAPVEAQPQQSSGASSAFKSFGSKLGNAAIFGAGSAIGSDIVNSIF"}, "B2": {"name": "HSE1 (protein, UniProt P38753 2-452, looked up)", "Class E vacuolar …": "SSSAIKIRNALLKATDPKLRSDNWQYILDVCDLVKEDPEDNGQEVMSLIEKRLEQQDANVILRTLSLTVSLAENCGSRLRQEISSKNFTSLLYALIESHSVHITLKKAVTDVVKQLSDSFKDDPSLRAMGDLYDKIKRKAPYLVQPNVPEKHNMSTQADNSDDEELQKALKMSLFEYEKQKKLQEQEKESAEVLPQQQQQHQQQNQAPAHKIPAQTVVRRVRALYDLTTNEPDELSFRKGDVITVLEQVYRDWWKGALRGNMGIFPLNYVTPIVEPSKEEIEKEKNKEAIVFSQKTTIDQLHNSLNAASKTGNSNEVLQDPHIGDMYGSVTPLRPQVTRMLGKYAKEKEDMLSLRQVLANAERSYNQLMDRAANAHISPPVPGPALYAGMTHANNTPVMPPQRQSYQSNEYSPYPSNLPIQHPTNSANNTPQYGYDLGYSVVSQPPPGYEQ"}}, "test_system": "growth of yeast strains under 51 stress conditions", "test": "Growth assays in 51 stress conditions (Fig. 1E-F, S2D, S5B)", "assay_type": "cell-based, Saccharomyces cerevisiae", "design": "key to Growth (Fig. S2D) / growth of ABP1 SH3-swapped strains in stress condition: log2 colony size, average of median per strain (growth score)", "conditions": "ABP1 SH3-swapped strains", "in_short": "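Colony sizes at 74 h on 51 stress media (37 °C) were log2 transformed, corrected for plate effects, and averaged across two plates as per-plate medians (growth score). Strains arrayed in 12 replicates with WT border, grown first on YPD for two days at 30 °C.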", "data": [{"molecule": "B1", "values": [{"measurement": "Growth (Fig. S2D)", "setting": "Bathophenanthroline.0.1uM", "result": 10.7989}, {"measurement": "Growth (Fig. S2D)", "setting": "Bathophenanthroline.10uM", "result": 10.6305}, {"measurement": "Growth (Fig. S2D)", "setting": "Bathophenanthroline.1uM", "result": 10.7471}, {"measurement": "Growth (Fig. S2D)", "setting": "CaCl2.100mM", "result": 10.8093}, {"measurement": "Growth (Fig. S2D)", "setting": "CaCl2.250mM", "result": 10.7989}, {"measurement": "Growth (Fig. S2D)", "setting": "CaCl2.500mM", "result": 10.2904}, {"measurement": "Growth (Fig. S2D)", "setting": "Caffein.10mM", "result": 10.1077}, {"measurement": "Growth (Fig. S2D)", "setting": "Caffein.2mM", "result": 10.9656}, {"measurement": "Growth (Fig. S2D)", "setting": "CdCl2.100uM", "result": 9.41}, {"measurement": "Growth (Fig. S2D)", "setting": "CdCl2.10uM", "result": 10.8732}, {"measurement": "Growth (Fig. S2D)", "setting": "CdCl2.50uM", "result": 9.85}, {"measurement": "Growth (Fig. S2D)", "setting": "CuSO4.1mM", "result": 10.4529}, {"measurement": "Growth (Fig. S2D)", "setting": "CuSO4.5mM", "result": 7.9447}, {"measurement": "Growth (Fig. S2D)", "setting": "Cycloheximide.0.05.uM", "result": 11.0938}, {"measurement": "Growth (Fig. S2D)", "setting": "Cycloheximide.0.2.uM", "result": 10.6171}, {"measurement": "Growth (Fig. S2D)", "setting": "Cycloheximide.0.5.uM", "result": 10.0964}, {"measurement": "Growth (Fig. S2D)", "setting": "DMSO.2.", "result": 11.0559}, {"measurement": "Growth (Fig. S2D)", "setting": "DMSO.6.", "result": 9.9059}, {"measurement": "Growth (Fig. S2D)", "setting": "DMSO.8.", "result": 9.2023}, {"measurement": "Growth (Fig. S2D)", "setting": "Ethanol.2.", "result": 10.7659}, {"measurement": "Growth (Fig. S2D)", "setting": "Ethanol.6.", "result": 10.2982}, {"measurement": "Growth (Fig. S2D)", "setting": "Ethanol.8.", "result": 10.0154}, {"measurement": "Growth (Fig. S2D)", "setting": "Galactose.2.", "result": 10.7736}, {"measurement": "Growth (Fig. S2D)", "setting": "Glycerol.2.", "result": 9.808}, {"measurement": "Growth (Fig. S2D)", "setting": "Hydroxyurea.25mM", "result": 10.7374}, {"measurement": "Growth (Fig. S2D)", "setting": "Hygromycin.190uM", "result": 11.0084}, {"measurement": "Growth (Fig. S2D)", "setting": "Hygromycin.19uM", "result": 10.9924}, {"measurement": "Growth (Fig. S2D)", "setting": "Hygromycin.95uM", "result": 10.9928}, {"measurement": "Growth (Fig. S2D)", "setting": "MMS.0.004.", "result": 10.965}, {"measurement": "Growth (Fig. S2D)", "setting": "MMS.0.02.", "result": 10.7457}, {"measurement": "Growth (Fig. S2D)", "setting": "MMS.0.04.", "result": 10.0868}, {"measurement": "Growth (Fig. S2D)", "setting": "Menadione.100uM", "result": 10.5379}, {"measurement": "Growth (Fig. S2D)", "setting": "Menadione.200uM", "result": 10.4102}, {"measurement": "Growth (Fig. S2D)", "setting": "Menadione.50uM", "result": 10.7973}, {"measurement": "Growth (Fig. S2D)", "setting": "NaCl.0.25M", "result": 10.8176}, {"measurement": "Growth (Fig. S2D)", "setting": "NaCl.1M", "result": 9.837}, {"measurement": "Growth (Fig. S2D)", "setting": "Nitroquinoline.10uM", "result": 10.6531}, {"measurement": "Growth (Fig. S2D)", "setting": "Nitroquinoline.50uM", "result": 10.6066}, {"measurement": "Growth (Fig. S2D)", "setting": "Nystatin.0.01uM", "result": 10.9737}, {"measurement": "Growth (Fig. S2D)", "setting": "Nystatin.0.1uM", "result": 10.9631}, {"measurement": "Growth (Fig. S2D)", "setting": "Raffinose.2.", "result": 11.0015}, {"measurement": "Growth (Fig. S2D)", "setting": "Rapamycin.10nM", "result": 9.7845}, {"measurement": "Growth (Fig. S2D)", "setting": "Rapamycin.50nM", "result": 9.381}, {"measurement": "Growth (Fig. S2D)", "setting": "SC.pH3", "result": 10.3983}, {"measurement": "Growth (Fig. S2D)", "setting": "SC.pH6", "result": 10.9866}, {"measurement": "Growth (Fig. S2D)", "setting": "SDS.0.01.", "result": 10.9788}, {"measurement": "Growth (Fig. S2D)", "setting": "SDS.0.02.", "result": 10.9881}, {"measurement": "Growth (Fig. S2D)", "setting": "SDS.0.05.", "result": 10.872}, {"measurement": "Growth (Fig. S2D)", "setting": "Sorbitol.10mM", "result": 11.0061}, {"measurement": "Growth (Fig. S2D)", "setting": "Sorbitol.1mM", "result": 11.049}, {"measurement": "Growth (Fig. S2D)", "setting": "Sorbitol.5mM", "result": 10.9179}]}, {"molecule": "B2", "values": [{"measurement": "Growth (Fig. S2D)", "setting": "Bathophenanthroline.0.1uM", "result": 10.8649}, {"measurement": "Growth (Fig. S2D)", "setting": "Bathophenanthroline.10uM", "result": 10.6324}, {"measurement": "Growth (Fig. S2D)", "setting": "Bathophenanthroline.1uM", "result": 10.7994}, {"measurement": "Growth (Fig. S2D)", "setting": "CaCl2.100mM", "result": 10.826}, {"measurement": "Growth (Fig. S2D)", "setting": "CaCl2.250mM", "result": 10.8072}, {"measurement": "Growth (Fig. S2D)", "setting": "CaCl2.500mM", "result": 10.2874}, {"measurement": "Growth (Fig. S2D)", "setting": "Caffein.10mM", "result": 10.0363}, {"measurement": "Growth (Fig. S2D)", "setting": "Caffein.2mM", "result": 11.0184}, {"measurement": "Growth (Fig. S2D)", "setting": "CdCl2.100uM", "result": 9.591}, {"measurement": "Growth (Fig. S2D)", "setting": "CdCl2.10uM", "result": 10.9135}, {"measurement": "Growth (Fig. S2D)", "setting": "CdCl2.50uM", "result": 9.882}, {"measurement": "Growth (Fig. S2D)", "setting": "CuSO4.1mM", "result": 10.4158}, {"measurement": "Growth (Fig. S2D)", "setting": "CuSO4.5mM", "result": 7.9665}, {"measurement": "Growth (Fig. S2D)", "setting": "Cycloheximide.0.05.uM", "result": 11.0571}, {"measurement": "Growth (Fig. S2D)", "setting": "Cycloheximide.0.2.uM", "result": 10.6529}, {"measurement": "Growth (Fig. S2D)", "setting": "Cycloheximide.0.5.uM", "result": 10.099}, {"measurement": "Growth (Fig. S2D)", "setting": "DMSO.2.", "result": 11.0462}, {"measurement": "Growth (Fig. S2D)", "setting": "DMSO.6.", "result": 9.883}, {"measurement": "Growth (Fig. S2D)", "setting": "DMSO.8.", "result": 9.238}, {"measurement": "Growth (Fig. S2D)", "setting": "Ethanol.2.", "result": 10.7698}, {"measurement": "Growth (Fig. S2D)", "setting": "Ethanol.6.", "result": 10.2684}, {"measurement": "Growth (Fig. S2D)", "setting": "Ethanol.8.", "result": 10.106}, {"measurement": "Growth (Fig. S2D)", "setting": "Galactose.2.", "result": 10.7486}, {"measurement": "Growth (Fig. S2D)", "setting": "Glycerol.2.", "result": 9.782}, {"measurement": "Growth (Fig. S2D)", "setting": "Hydroxyurea.25mM", "result": 10.7604}, {"measurement": "Growth (Fig. S2D)", "setting": "Hygromycin.190uM", "result": 10.981}, {"measurement": "Growth (Fig. S2D)", "setting": "Hygromycin.19uM", "result": 10.9309}, {"measurement": "Growth (Fig. S2D)", "setting": "Hygromycin.95uM", "result": 11.0429}, {"measurement": "Growth (Fig. S2D)", "setting": "MMS.0.004.", "result": 11.0045}, {"measurement": "Growth (Fig. S2D)", "setting": "MMS.0.02.", "result": 10.6778}, {"measurement": "Growth (Fig. S2D)", "setting": "MMS.0.04.", "result": 10.0151}, {"measurement": "Growth (Fig. S2D)", "setting": "Menadione.100uM", "result": 10.5782}, {"measurement": "Growth (Fig. S2D)", "setting": "Menadione.200uM", "result": 10.4179}, {"measurement": "Growth (Fig. S2D)", "setting": "Menadione.50uM", "result": 10.792}, {"measurement": "Growth (Fig. S2D)", "setting": "NaCl.0.25M", "result": 10.7546}, {"measurement": "Growth (Fig. S2D)", "setting": "NaCl.1M", "result": 9.884}, {"measurement": "Growth (Fig. S2D)", "setting": "Nitroquinoline.10uM", "result": 10.6974}, {"measurement": "Growth (Fig. S2D)", "setting": "Nitroquinoline.50uM", "result": 10.5671}, {"measurement": "Growth (Fig. S2D)", "setting": "Nystatin.0.01uM", "result": 11.0224}, {"measurement": "Growth (Fig. S2D)", "setting": "Nystatin.0.1uM", "result": 11.0326}, {"measurement": "Growth (Fig. S2D)", "setting": "Raffinose.2.", "result": 11.0272}, {"measurement": "Growth (Fig. S2D)", "setting": "Rapamycin.10nM", "result": 9.925}, {"measurement": "Growth (Fig. S2D)", "setting": "Rapamycin.50nM", "result": 9.396}, {"measurement": "Growth (Fig. S2D)", "setting": "SC.pH3", "result": 10.4058}, {"measurement": "Growth (Fig. S2D)", "setting": "SC.pH6", "result": 10.9649}, {"measurement": "Growth (Fig. S2D)", "setting": "SDS.0.01.", "result": 10.9823}, {"measurement": "Growth (Fig. S2D)", "setting": "SDS.0.02.", "result": 10.9972}, {"measurement": "Growth (Fig. S2D)", "setting": "SDS.0.05.", "result": 10.8418}, {"measurement": "Growth (Fig. S2D)", "setting": "Sorbitol.10mM", "result": 11.0121}, {"measurement": "Growth (Fig. S2D)", "setting": "Sorbitol.1mM", "result": 11.0602}, {"measurement": "Growth (Fig. S2D)", "setting": "Sorbitol.5mM", "result": 10.8937}]}]}
